Data from publication PMC9307851.

Biological target: DNMT3B MTase domain (residues 569-853), R670Q (human) (UniProt Q9UBC3)

- in vitro DNA methylation efficiency of the DNMT3B-DNMT3B complex on CpG DNA, reduction against WT: 3 fold
Substance: DNMT3B MTase domain (residues 569-853), R670Q (from UniProt Q9UBC3-1 569-853) (domain or fragment)
